Data as given in IntAct's records for PubMed 25910212.

B1: Emerin (Homo sapiens), P50402 (parent)
chain: MDNYADLSDTELTTLLRRYNIPHGPVVGSTRRLYEKKIFEYETQRRRLSPPSSSAASSYSFSDLNSTRGDADMYDLPKKEDALLYQSKGYNDDYYEESYFTTRTYGEPESAGPSRAVRQSVTSFPDADAFHHQVHDDDLLSSSEEECKDRERPMYGRDSAYQSITHYRPVSASRSSLDLSYYPTSSSTSFMSSSSSSSSWLTRRAIRPENRAPGAGLGQDRQVPLWGQLLLFLVFVIVLFFIYHFMQAEEGNPF
partner: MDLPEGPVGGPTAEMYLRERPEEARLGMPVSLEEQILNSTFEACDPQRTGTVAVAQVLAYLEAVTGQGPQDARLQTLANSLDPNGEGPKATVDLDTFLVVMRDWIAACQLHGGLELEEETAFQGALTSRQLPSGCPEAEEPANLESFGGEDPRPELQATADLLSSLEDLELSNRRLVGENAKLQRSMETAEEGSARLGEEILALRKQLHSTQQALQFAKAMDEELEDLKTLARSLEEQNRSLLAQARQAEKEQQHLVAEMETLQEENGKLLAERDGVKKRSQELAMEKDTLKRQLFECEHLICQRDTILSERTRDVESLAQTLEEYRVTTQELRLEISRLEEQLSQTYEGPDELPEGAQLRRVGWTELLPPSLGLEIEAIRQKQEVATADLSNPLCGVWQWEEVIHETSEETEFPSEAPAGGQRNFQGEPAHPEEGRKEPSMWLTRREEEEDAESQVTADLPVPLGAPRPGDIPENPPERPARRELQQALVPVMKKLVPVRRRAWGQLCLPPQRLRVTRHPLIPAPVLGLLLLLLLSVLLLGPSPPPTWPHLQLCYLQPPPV
B2: Cytochrome P450 1A1 (Homo sapiens), P04798 (parent)
chain: MLFPISMSATEFLLASVIFCLVFWVIRASRPQVPKGLKNPPGPWGWPLIGHMLTLGKNPHLALSRMSQQYGDVLQIRIGSTPVVVLSGLDTIRQALVRQGDDFKGRPDLYTFTLISNGQSMSFSPDSGPVWAARRRLAQNGLKSFSIASDPASSTSCYLEEHVSKEAEVLISTLQELMAGPGHFNPYRYVVVSVTNVICAICFGRRYDHNHQELLSLVNLNNNFGEVVGSGNPADFIPILRYLPNPSLNAFKDLNEKFYSFMQKMVKEHYKTFEKGHIRDITDSLIEHCQEKQLDENANVQLSDEKIINIVLDLFGAGFDTVTTAISWSLMYLVMNPRVQRKIQEELDTVIGRSRRPRLSDRSHLPYMEAFILETFRHSSFVPFTIPHSTTRDTSLKGFYIPKGRCVFVNQWQINHDQKLWVNPSEFLPERFLTPDGAIDKVLSEKVIIFGMGKRKCIGETIARWEVFLFLAILLQRVEFSVPLGVKVDMTPIYGLTMKHACCEHFQMQLRS
B3: Sulfotransferase 2B1 (Homo sapiens), O00204 (parent)
chain: MDGPAEPQIPGLWDTYEDDISEISQKLPGEYFRYKGVPFPVGLYSLESISLAENTQDVRDDDIFIITYPKSGTTWMIEIICLILKEGDPSWIRSVPIWERAPWCETIVGAFSLPDQYSPRLMSSHLPIQIFTKAFFSSKAKVIYMGRNPRDVVVSLYHYSKIAGQLKDPGTPDQFLRDFLKGEVQFGSWFDHIKGWLRMKGKDNFLFITYEELQQDLQGSVERICGFLGRPLGKEALGSVVAHSTFSAMKANTMSNYTLLPPSLLDHRRGAFLRKGVCGDWKNHFTVAQSEAFDRAYRKQMRGMPTFPWDEDPEEDGSPDPEPSPEPEPKPSLEPNTSLEREPRPNSSPSPSPGQASETPHPRPS
partner: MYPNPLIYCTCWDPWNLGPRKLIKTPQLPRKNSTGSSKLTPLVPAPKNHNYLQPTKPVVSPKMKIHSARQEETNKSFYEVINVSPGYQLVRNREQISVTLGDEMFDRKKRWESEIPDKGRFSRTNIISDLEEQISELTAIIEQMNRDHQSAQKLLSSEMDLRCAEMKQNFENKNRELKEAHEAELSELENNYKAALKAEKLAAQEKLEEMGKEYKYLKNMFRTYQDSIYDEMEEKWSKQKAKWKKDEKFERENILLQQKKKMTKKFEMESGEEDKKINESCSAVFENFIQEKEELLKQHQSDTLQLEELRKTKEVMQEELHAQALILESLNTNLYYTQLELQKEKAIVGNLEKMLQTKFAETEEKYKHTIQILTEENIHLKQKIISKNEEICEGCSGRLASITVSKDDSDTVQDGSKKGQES
B4: Adiponectin (Homo sapiens), Q15848 (parent)
chain: MLLLGAVLLLLALPGHDQETTTQGPGVLLPLPKGACTGWMAGIPGHPGHNGAPGRDGRDGTPGEKGEKGDPGLIGPKGDIGETGVPGAEGPRGFPGIQGRKGEPGEGAYVYRSAFSVGLETYVTIPNMPIRFTKIFYNQQNHYDGSTGKFHCNIPGLYYFAYHITVYMKDVKVSLFKKDKAMLFTYDQYQENNVDQASGSVLLHLEVGDQVWLQVYGEGERNGLYADNDNDSTFTGFLLYHDTN
partner: B1 partner

Variants of: B1
Conditions: with kash5_human KASH5, Q8N6L0

Question: Which “effect of a mutation on the interaction” value does the source give for MDNYADLSDTELTTLLRRYNIPHGPVVGSTRRLYEKKIFEYETQRRRLSPPSSSAASSYSFSDLNSTRGDAVMYDLPKKEDALLYQSKGYNDDYYEESYFTTRTYGEPESAGPSRAVRQSVTSFPDADAFHHQVHDDDLLSSSEEECKDRERPMYGRDSAYQSITHYRPVSASRSSLDLSYYPTSSSTSFMSSSSSSSSWLTRRAIRPENRAPGAGLGQDRQVPLWGQLLLFLVFVIVLFFIYHFMQAEEGNPF [D72V] here?
Answer: with no effect

Question: For MDNYADLSDTELTTLLRRYNIPHGPVVGSTRRLYEKKIFEYETQRRRLSPPSSFAASSYSFSDLNSTRGDADMYDLPKKEDALLYQSKGYNDDYYEESYFTTRTYGEPESAGPSRAVRQSVTSFPDADAFHHQVHDDDLLSSSEEECKDRERPMYGRDSAYQSITHYRPVSASRSSLDLSYYPTSSSTSFMSSSSSSSSWLTRRAIRPENRAPGAGLGQDRQVPLWGQLLLFLVFVIVLFFIYHFMQAEEGNPF [S54F], which “effect of a mutation on the interaction” value is on record?
Answer: with no effect

Question: How did the “effect of a mutation on the interaction” value turn out when MDNYADLSDTELTTLLRRYNIPHGPVVGSTRRLYEKKIFEYETQRRRLSPPSSSAASSYSFSDLNSTRGDADMYDLPKKEDALLYQSKGYNDDYYEESYFTTRTYGEPESAGPSRAVRQSVTSFPDADAFHHQVHDDDLLSSSEEECKDRERPMYGRDSAYQSITHYRPVSASRSSLDLSYYHTSSSTSFMSSSSSSSSWLTRRAIRPENRAPGAGLGQDRQVPLWGQLLLFLVFVIVLFFIYHFMQAEEGNPF [P183H] was run?
Answer: with no effect

Question: For MDNYADLSDTELTTLLRRYNIPHGPVVGSTRRLYEKKIFEYETQRRRLSPPSSSAASSYSFSDLNSTRGDADMYDLPKKEDALLYQSKGYNDDYYEESYFTTRTYGEPESAGPSRAVRQSVTSFPDADAFHHQVHDDDLLSSSEEECKDRERPMYGRDSAYQSITHYRPVSASRSSLDLSYYTTSSSTSFMSSSSSSSSWLTRRAIRPENRAPGAGLGQDRQVPLWGQLLLFLVFVIVLFFIYHFMQAEEGNPF [P183T], which “effect of a mutation on the interaction” value is on record?
Answer: with no effect

Variants of: B2
Conditions: with CMTM5, Q96DZ9-2
CMTM5, Q96DZ9-2, sequence (Q96DZ9 other isoform, or with tags, fused parts or gaps): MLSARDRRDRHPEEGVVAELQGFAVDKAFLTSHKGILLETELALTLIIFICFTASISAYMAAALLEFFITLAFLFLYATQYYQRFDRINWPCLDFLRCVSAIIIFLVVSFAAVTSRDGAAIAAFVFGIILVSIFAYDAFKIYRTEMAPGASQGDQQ

Question: How did the “effect of a mutation on the interaction” value turn out when MLFPISMSATEFLLASVIFCLVFWVIRASRPQVPKGLKNPPGPWGWPLIGHMLTLGKNPHLALSRMSQQYGDVLQIRIGSTPVVVLSGLDTIRQALVRQGDDFKGRPDLYTFTLISNGQSMSFSPDSGPVWAARRRLAQNGLKSFSIASDPASSTSCYLEEHVSKEAEVLISTLQELMAGPGHFNPYRYVVVSVTNVICAICFGRRYDHNHQELLSLVNLNNNFGEVVGSGNPADFIPILRYLPNPSLNAFKDLNEKFYSFMQKMVKEHYKTFEKGHIRDITDSLIEHCQEKQLDENANVQLSDEKIINIVLDLFGAGFDTVTTAISWSLMYLVMNPRVQRKIQEELDTVIGRSRRPRLSDRSHLPYMEAFILETFRHSSFVPFTIPHSTTRDTSLKGFYIPKGRCVFVNQWQINHDQKLWVNPSEFLPERFLTPDGAIDKVLSEKVIIFGMGKRKCIGENIARWEVFLFLAILLQRVEFSVPLGVKVDMTPIYGLTMKHACCEHFQMQLRS [T461N] was run?
Answer: with no effect

Question: With MLFPISMSATEFLLASVIFCLVFWVIRASRPQVPKGLKNPPGPWGWPLIGHMLTLGKNPHLALSRMSQQYGDVLQIRIGSTPVVVLSGLDTIRQALVRQGDDFKGRPDLYTFTLISNGQSMSFSPDSGPVWAARRRLAQNGLKSFSIASDPASSTSCYLEEHVSKEAEVLISTLQELMAGPGHFNPYRYVVVSVTNVICAICFGRRYDHNHQELLSLVNLNNNFGEVVGSGNPADFIPILRYLPNPSLNAFKDLNEKFYSFMQKMVKEHYKTFEKGHIRDITDSLIEHCQEKQLDENANVQLSDEKIINIVLDLFGAGFDTVTTAISWSLMYLVMNPRVQRKIQEELDTVIGRSRRPRLSDRSHLPYMEAFILETFRHSSFVPFTIPHSTTRDTSLKGFYIPKGRCVFVNQWQINHDQKLWVNPSEFLPERFLTPDGAIDKVLSEKVIIFGMGKRKCIGETVARWEVFLFLAILLQRVEFSVPLGVKVDMTPIYGLTMKHACCEHFQMQLRS [I462V] as the variant, how does the “effect of a mutation on the interaction” value read?
Answer: with no effect

Variants of: B3
Conditions: with FLACC1, Q96Q35-2

Question: Which “effect of a mutation on the interaction” value does the source give for MDGPAEPQIPGLWDTYEDDISEISQKLPGEYFRYKGVPFPVGLYSLESISLAENTQDVRDDDIFIITYPKSGTTWMIEIICLILKEGDPSWIRSVPIWERAPWCETIVGAFSLPDQYSPRLMSSHLPIQIFTKAFFSSKAKVIYMGRNPRDVVVSLYHYSKIAGQLKDPGTPDQFLRDFLKGEVQFGSWFDHIKGWLRMKGKDNFLFITYEELQQDLQGSVERICGFLGHPLGKEALGSVVAHSTFSAMKANTMSNYTLLPPSLLDHRRGAFLRKGVCGDWKNHFTVAQSEAFDRAYRKQMRGMPTFPWDEDPEEDGSPDPEPSPEPEPKPSLEPNTSLEREPRPNSSPSPSPGQASETPHPRPS [R230H] here?
Answer: with no effect

Question: Which “effect of a mutation on the interaction” value does the source give for MDGPAEPQIPGLWDTYEDDISEISQKLPGEYFRYKGVPFPVGLYSLESISLAENTQDVRDDDIFIITYPKSGTTWMIEIICLILKEGDPSWIRSVPIWERAPWCETIVGAFSLPDQYSPRLMSSHLPIQIFTKAFFSSKAKVIYMGRNPRDVVVSLYHYSKIAGQLKDPGTPDQFLRDFLKGEVQFGSWFNHIKGWLRMKGKDNFLFITYEELQQDLQGSVERICGFLGRPLGKEALGSVVAHSTFSAMKANTMSNYTLLPPSLLDHRRGAFLRKGVCGDWKNHFTVAQSEAFDRAYRKQMRGMPTFPWDEDPEEDGSPDPEPSPEPEPKPSLEPNTSLEREPRPNSSPSPSPGQASETPHPRPS [D191N] here?
Answer: with no effect

Variants of: B4
Conditions: with kash5_human KASH5, Q8N6L0

Question: Y111H was tested. Which “effect of a mutation on the interaction” value did it give?
Answer: with no effect

Question: With I164T as the variant, how does the “effect of a mutation on the interaction” value read?
Answer: with no effect
